According to patent US20100323957A1, “NOVEL ASSAY FOR INHIBITORS OF EGFR” (THE REGENTS OF THE UNIVERSITY OF CALIFORNIA THE OFFICE OF …, priority 2007, published 2010):

Tests used:
[1] = biological target: EGFR kinase domain L834R mutant (human) (UniProt P00533); test: cell-based or functional assay
[2] = biological target: wild-type EGFR kinase domain (residues 672-998 of human EGFR) with N-terminal 6-His tag, linker and TEV site (human) (UniProt P00533); test: cell-based or functional assay
[3] = biological target: EGFR kinase domain I682Q mutant with N-terminal His tag and linker (human) (UniProt P00533); test: anisotropy

Chain of 30-residue fluorescein-labelled MIG6 peptide (residues 334-363) (Q9UJM3 334-363): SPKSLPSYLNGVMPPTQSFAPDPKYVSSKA

Substance | IC50, inhibition of kinase activity in solution [1] [µM] | further results
MIG6(segments 1-2) peptide (residues 336-412) (from UniProt Q9UJM3 336-412) | 0.2 | 
40-residue MIG6 peptide (residues 325-364) (from UniProt Q9UJM3 325-364) |  | IC50, inhibition of activated EGFR kinase [2]: 10 µM
MIG6(segments 1-2) peptide (residues 336-412) bearing Y358A (from UniProt Q9UJM3 336-412) | 5 | 
30-residue fluorescein-labelled MIG6 peptide (residues 334-363) (from UniProt Q9UJM3 334-363) |  | Kd [3]: 18.3 µM
